{"source": "the nanobody polyreactivity screen of Harvey et al. (2022)", "data": [{"assay": "yeast display, Sf9 membrane polyspecificity reagent, FACS + sequencing; frameworks hold sequencing errors", "how_it_was_run": "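Galactose induction of a Saccharomyces cerevisiae BJ5465 synthetic nanobody display library ran 36–48 hours. The cells were then stained for 1 hour at 4 °C with 10% biotinylated, detergent-solubilized Sf9 membrane reagent, pulled down on streptavidin microbeads and FACS-sorted into low and high (top ~1%) gates on expression and reagent-binding fluorescence. Labels for polyreactivity follow the gate of origin.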", "values": [{"sequence": "QVQLVESGGGLVQAGGSLRLSCAASGSTLTRNDIGWYRQAPGKERELVAAITFSGSDTYYADSVKGRFTISRDNAKNTVYLQMNILKPEDTAVYYCAAEYGGYSIYLFIGRYYWGQGTQVTVSS", "polyreactivity (PSR sort gate)": "low polyreactivity"}, {"sequence": "QDQLVESGGGLVQAGGSLRLSCAASGSTLRYYAMGWYRQAPGKERELVAAITYSAGRTSYADSVKGRFTISRDNAKNTVYLQMNSLKPEDTAVYYCATQWHSYLRRYDYWGQGTQVTVSS", "polyreactivity (PSR sort gate)": "low polyreactivity"}, {"sequence": "QVQLVESGGGLVQAGGSLRLSCAASGFTFPRNAMGCYRQAPGKERELVAGISKSGGSTYYADSVKGRFTISRDNAKNTVYLQMNSLKPEDTAVYYCAKAVNSPRKYQLGNGYWGQGTQVTVSS", "polyreactivity (PSR sort gate)": "high polyreactivity"}, {"sequence": "QVQLVESGGGLVQAGGSLRLSCAASGRIFDNYVMGWYRQAPGKERELVAAISSGGGTYYADSVKGRFTISRDNAKNTVYLQMNSLKPEDTAVYYCAKRRVYDRSFGRYDYWGQGTQVTVSS", "polyreactivity (PSR sort gate)": "low polyreactivity"}, {"sequence": "QVQRVESGGGLVQAGGSLRLSCAASGSIFPRYAMGWYRQAPGKEREMVATISSGGSTYYADSVKGRFTISRDNAKNTVYLQMNSLKPEHTAVYYCAARKRPYTVINGMDYWGQGTQVTVSS", "polyreactivity (PSR sort gate)": "low polyreactivity"}, {"sequence": "QVQLVESGGGLVQAGGSLRLSCAASGIFVSYAMGWYRQAPGKERELVAAISWNGGSTYYADSVKGRFTISRDNAKNTVYLQMNSLKPEDTAVYDCAARAYFSYRGYVTDYDYWGQGTQVTVSS", "polyreactivity (PSR sort gate)": "high polyreactivity"}, {"sequence": "QVQLVESGGGLVQAGGSLRVSCAASGRIFRYTSGWYRQAPAKERELVATINSCGRTYYADSVKGRFTISRDNAKNTVYLQRNCLKPEDTAVYFCAAPYQTKCNKYVHGSPIENDYWGQGTQVTVSS", "polyreactivity (PSR sort gate)": "low polyreactivity"}, {"sequence": "QVQLVESGGGLVQAGGSLRLSCAASGSIFLAYAMGWYRQAPGKEREFVAAISSRGGSTYYADSVKGRFTISRDNAKNTVYLQMNSLKPEDTAVYYCARYKYTRQTRVEYGYWGQGTQVTVSS", "polyreactivity (PSR sort gate)": "high polyreactivity"}, {"sequence": "QVQLVESGGGLVQAGGSLRLSCAASGSTFGWNAMGWYRQAPGKERELVAAISSSGGITYYAYSVKGRFTISRDKAKNTVSLQMNSLKPEDTAVYYCAAERDDDWGNYWGQGTQVTGSS", "polyreactivity (PSR sort gate)": "low polyreactivity"}, {"sequence": "QVQLVESGGGLVQAGGSLRLSCAASGSTFYYYAMGWYRQAPGKERELVAAINSGGRTNYADSVKGRFTISRDNAKNTVYLQMNSLKPEDTAVYYCAKRTYPYGTYRSVWGYDYWGQGTQVTVSS", "polyreactivity (PSR sort gate)": "low polyreactivity"}, {"sequence": "QVQLVESGGGLVQAGGSLRLSCAASGSTFPWNAMGWHRQAPGKERELVAAISKSGGRTYYADSVKGRFTISRDNAKNTVYLQMNSLRPEDTAVYYCNALGSLDGRYGYWGQGTQVTVSS", "polyreactivity (PSR sort gate)": "high polyreactivity"}, {"sequence": "QVQLVESGGGLVQAGGSLLLSCAASGGTIRYYAMGWSRQSPGKERELVAAISRGGTNTYYADSVKGRFTISRDNAKNTVYLQRNSLKPDDTAVYYCSAKRYSRYNYWGQGTQVTVSS", "polyreactivity (PSR sort gate)": "high polyreactivity"}, {"sequence": "QVQLLESAGGLVQAGGSLRLRCSASGYISCDASMGWYRHAPGKERELAASITKGSSTNYADSEKGRFTIRDNAINTVYLQMNSLKPEDTAVCYCAVTYPYWGDYTYWGHGTQVTVSS", "polyreactivity (PSR sort gate)": "low polyreactivity"}, {"sequence": "QVQLQESGGGLVQASGSLRLSCAASGNIFPDYLMGWYRLAPGKEREFVANITGGSTTNYADSVKGRFTISRDNATNTVYLQMNSLKPEDTAVYYCEVNFGTVVLYLYWGQGTQVTVSS", "polyreactivity (PSR sort gate)": "high polyreactivity"}, {"sequence": "QVQLVESGGGLVQAGASHRLSCAASGSTFRYNSMGSYRQAPGKERELVAAISRGGSTNYADSVNGRFTISRDNANNTVYLQMISLKPEATAVYYCAASGTRQEYDYWGQGTQVTVSS", "polyreactivity (PSR sort gate)": "high polyreactivity"}, {"sequence": "QVQLVESGGGLVQAGGSLRLSCAASGYILRRNAMGWYRQAPGKERELVARINSSGGSTYYADSVKGRFTISRDNAKNTVYLQMNSLKPEDTAVYYCAKSYYRGRDYWGQGTQVTVSS", "polyreactivity (PSR sort gate)": "high polyreactivity"}, {"sequence": "QVQLVESGGGLVQAGGSLRLSCAASGSIFGYYAMGWYRQAPGKERELVAAISSGGSTKYADSVKGRFTISRDNAKNTVYLQMNSLKPEDTAVYYFNAAYSQIRFNYRGQGTQVTVSS", "polyreactivity (PSR sort gate)": "high polyreactivity"}, {"sequence": "QVQLVESGGGLVQAGGSLRLSCAASGRTFQRNVMGWYRQAPGKERELVAAISSSGGGTYYADSVQGRFTISRANAKNTVYLQMNSLKPDDTAVYYCAARYRSYGGYGYYYWGLGTQVTVSS", "polyreactivity (PSR sort gate)": "high polyreactivity"}, {"sequence": "QVQHVESGGGLVQAGGSLRLICAASGFTFHLYAMGWYRQAPGKERELVASITYSGGSTYYADSVKGRFTISRDKAKNTVYLHMNSLKAEDTAFYYCNRYSSSYSYDYWGQATQVTVSS", "polyreactivity (PSR sort gate)": "high polyreactivity"}, {"sequence": "QVQLVESGGGLVQAGGSLRLSCAASGIILVNNAMGWYRQAPGTEREFVAAIRYSAGSTYYADSVKGRFTISRDTAKNTVYLQMNSLKAEDTAVYYCARRWKGGWYEYGYWGQGTQVTVAS", "polyreactivity (PSR sort gate)": "high polyreactivity"}, {"sequence": "QVQLVETGGGLVHAGGSLRLSCAASGRTFEPNAMGWYRQAPGKERELVATISYSGGRTNYADSVKGRFTISRDNAKNTVYLQMKILKPEDTAVYYCATRTYYRRVCIRDFWGQGTLVTVSS", "polyreactivity (PSR sort gate)": "high polyreactivity"}, {"sequence": "QVQLVESGGGLVQAGGSLRLSCAASGRISRSNTMGWYRQGPGKERELVAAISRGGGSTYYADSVKGRFTISRDNAKNTVYLQMNSLKPEDTAVDYCAKAFRGHYWRQGTQVTVSS", "polyreactivity (PSR sort gate)": "high polyreactivity"}, {"sequence": "QVQLVESGGGLVQAGGSLRLSCAASGFTFSRNAMGWYRQAPGKERELVAAIDSGGSTDYADSVKGRFTISRDNAKNTVYLQLNSLKPEDTAVYYCAKASSATRYVQLRQDYDYWGQGTQVTVSS", "polyreactivity (PSR sort gate)": "low polyreactivity"}, {"sequence": "QVQLVESGGGLVQAGGSLRLSSAASGFIFPAYAMGWYRQAPGKDRELVAAISKSGGRTYYADSVKGRFTISRDNAKNTVYLQMNSLKPEDTAVYYCNKYRYPREQYTWKYAWGYDYWGQGTQVTVSS", "polyreactivity (PSR sort gate)": "high polyreactivity"}, {"sequence": "QVQLVESGGGLVQAGGSLRLSCAASGSIFVLYAMGWYRQAPGKERELVAAIDFGGGSTYYADSVKGRFTISRDNAKNTVYLQMNSLKPEYTAVYYCAAELYYTYRWYDYWGQGTQVTVSS", "polyreactivity (PSR sort gate)": "high polyreactivity"}, {"sequence": "QVQLVESGGGLVQAGGSLRLSFAATGSILLRYAMGWYRQAPGKERELVAAISYDGGGTFYADSVKGRFTISRDNAKNTVYLQMHSLKPEDTAVYYCAARVIFRVKGLEYWGQGTQVTVSS", "polyreactivity (PSR sort gate)": "low polyreactivity"}, {"sequence": "QVQHVESGGGLVQAGGSLRLSCAASVSIFYDYAMGWYRQAPGKERELVAAINKSGGSTYYADSVKGRFTISRDNAKNTVYLQMNSLKPEDTAVYYCIARKRLGPVRYGYWGQGTQVTVST", "polyreactivity (PSR sort gate)": "high polyreactivity"}, {"sequence": "QVQLVESGGGLVQAGGSLRLSCAASGFTFFTYAMGWYRQAPGKDRQLVAAITTGGSTNYADSVKGRFTISRDNAKINVYLEMNSLKPEDTAVYYCAAQRVSVLLFVRHDYWGQGTQVTVSS", "polyreactivity (PSR sort gate)": "low polyreactivity"}, {"sequence": "QVQLVESGGGLVQAGGSLRLSCAASGRTFNRNTMGWYRQAPGKERELVAGITKRGGSTYYADSVKGRFTISRDNAKNTVYLQMNSLKPEDTAVYYCNAATNGSPPDYDYWGQGTQVNVSS", "polyreactivity (PSR sort gate)": "high polyreactivity"}, {"sequence": "QVQLVESGGGLVQAGGSLLLSCAASGSIYSYYAMGWYRQAPGKERELVAAISQSGGTTYYADSVKGRFTISRDNAKNTVYLQMNSLKPEDTAVYYCAARATSSFDTQYYYWGQGTQVTVSS", "polyreactivity (PSR sort gate)": "low polyreactivity"}, {"sequence": "QVQLVESGGGLVQAGGSLRLSCAASGIIFLWYAMRWYRQAPGKERELVAAISRTGSSTYYADSVKGRFTISRDTAKNTVYLQMNSLKPEDTAVYYCAAAYYSNRSWRFDYWGQGTQVTVSS", "polyreactivity (PSR sort gate)": "high polyreactivity"}, {"sequence": "QVQLVESGGGLVQAGGSLRLSCAASGSIYEINAMGWYRQAPGKERELVAAITGSGGSTHYADSVKGRFTISRDNAKNTVYLQMNSLKPEDTAVYYCAAVPRYQYGYWGQGTQVTVSS", "polyreactivity (PSR sort gate)": "low polyreactivity"}, {"sequence": "QVHLVESAAGLVQAGGSLRLSCAASGSTFIGNAMVWYRQAPGKERELVAAITRSGGTTYYADSVKGRFTISRDNAKNTVYLQMNSLKPEDTAVYYCNKTHFFGYDSWGQGTQVTVSS", "polyreactivity (PSR sort gate)": "low polyreactivity"}, {"sequence": "QVQLVESGGGLVQAGGSLRLSCAASGSTFRRNAMGWYRQAPGKERELVATISTRGGSTYYADSVKGRLTLSRDNAKNTVYLQMNSLKPEDTAVYYCAADRRSGYSRSKYGRGDYWGQGTQVTVSS", "polyreactivity (PSR sort gate)": "high polyreactivity"}, {"sequence": "QVQLVESCGGLVQAGGSLRLSCAASGRTFYGYAMGWYRQAPGKERELVAAITASGGSTNYADSVKGRFTISRDNAKNTVYLQMNSLKPEDTAVYYCAARVYYLGQFYWYGYWGQGTQVTVSS", "polyreactivity (PSR sort gate)": "high polyreactivity"}, {"sequence": "QVQLVESGGGLVQAGGSLRLSCAASGGIFHHYAMGWSRPAPGKERELVAGISWRGTSTYYADSVKGRFTISRDNAKNTVYLQMNSLKPEDTAVYYCARVYPYSVGYNSGHPASYDYWGQGTQVTVSS", "polyreactivity (PSR sort gate)": "high polyreactivity"}, {"sequence": "QVQLVESGGGIVQAGGSLRLSCAASGFTFDPYAMGWYRQAPGKERELVAATSWSGGSTYYADSVKGRFTISRDNAKNTVYLQMNSLKPEDTAVYYCAAEWYNSAYYEYDYWGQGTQVTVSS", "polyreactivity (PSR sort gate)": "high polyreactivity"}, {"sequence": "QVQLVESGGGLVQAGGSLRLSCAASGSTSHQYAMGWYRQAPGKERELVAAISSRAGSTYYADSVKGRFTISRDNAKNTVYLQMNSLKPEDTAFYYCAADADSWKWGYDYWGQGTQVTVSS", "polyreactivity (PSR sort gate)": "low polyreactivity"}, {"sequence": "QVQHVESGGGLVQAGGSLRLICAASGRIFLRNAMGWYRQAPGKERELVATITSRGGSTYYADAVKGRFTISRDNAKNTVYLQMNRLKPEDTAVYNCAAVPRRYRGFGYVYGGFYYWGQGTQVTVSS", "polyreactivity (PSR sort gate)": "low polyreactivity"}, {"sequence": "QVQLVESGGGLVQAGGSLRLSCATSGITFIGKYAMGWYRQAPGKERELVAAISWSGGRTYYADSVKGRFTISRDNAKNSDYLQMNSLKPEDTAVYYCAVYPRDAERYGYWGQGTQVTVSS", "polyreactivity (PSR sort gate)": "high polyreactivity"}, {"sequence": "QVQLVESGGGLVQAGGSLRLSCAASGSTFFHYAMGWYRQAPGKERELVAAIDSNGGSTYYADSVKGRFTISRDNAKNTVYLQMNSLKPEDTAVYYCAADDLAEFEYDYWGQGTQVTVSS", "polyreactivity (PSR sort gate)": "low polyreactivity"}]}]}
